This is an account of results in paper PMC4176187.

This test has as its target 40S ribosomal subunits purified from rabbit reticulocyte lysate (rabbit) (UniProt G1U0Q2). In words: protein transfer assay.

In turn, “human recombinant SRP9/14 protein heterodimer, wild type (from UniProt P49458 1-86; P37108 1-136) (complex)” registered a percent of the protein transferred from scAlu RNA to 40S of 41%.
Next, “human recombinant SRP9/14A5 (basic pentapeptide K96-K100 of SRP14 mutated) (from UniProt P49458 1-86; P37108 1-136) (complex)”: 16%.
